# Assay results: patent US20080020984A1, “Crystal Structure of a Receptor-Ligand Complex and Methods of Use” (priority 2006, published 2008)
# Positions count from the first letter of the chain named. Where a SMILES comes first, the peptide text is derived from it. Where no end group is shown, it is not given here. The star is where a group is joined. X1 = CC1N=c2c(cc3c(c2S(=O)(=O)O)Oc2c(cc4c(c2S(=O)(=O)O)NC(C)C4(C)C)C=3c2ccc(C(=O)*)cc2)C1(C)C
# Tests used:
# [1] = target: Alexa-532-TNYL-RAW peptide; assay: fluorescence polarization, EphB4 titrated into 75 nM Alexa-532-TNYL-RAW
# [2] = target: T1, human EphB4 ephrin-binding domain, EphB4 (wt), EphB4 (17-196) (Homo sapiens, UniProt P54760); assay: Isothermal titration calorimetry (ITC), wild-type EphB4; details: Table 5, receptor EphB4 (wt)
# T1 sequence (P54760 17-196): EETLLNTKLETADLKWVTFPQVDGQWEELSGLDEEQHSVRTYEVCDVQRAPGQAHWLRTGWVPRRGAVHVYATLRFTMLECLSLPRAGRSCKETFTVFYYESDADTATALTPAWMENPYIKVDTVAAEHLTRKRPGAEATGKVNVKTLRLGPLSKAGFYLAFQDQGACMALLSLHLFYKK
# Procedure: All mutants and ligands were dialyzed into buffer containing 50 mM Tris-Cl (pH 7.8), 150 mM NaCl, and 1 mM CaCl2 prior to use in isothermal titration calorimetry (ITC) experiments. All experiments were performed with a Microcal MCS ITC at 25° C. […] Data for these titrations were fit assuming a stoichiometry of 1 and at least 60% saturation at the final peptide concentration as described (19,34).
# Peptides were dissolved into the same buffer used for the dialysis of EphB4. […] ITC experiments were performed with a Microcal MCS ITC at 25° C. Following an initial injection of 2 μl, titrations were performed by making 20 13 μl injections of peptide into EphB4 in the sample cell to produce an approximate final 2:1 ratio of injectant to sample in the cell. […] Prior to loading the sample cell, EphB4 was centrifuged at 18,000 g for 5 min at 4° C. to remove aggregates and degassed for 5 minutes at room temperature. […] Dilution data were fit to a line and subtracted from the corresponding titration data.
# [3] = target: Alexa-532-TNYL-RAW peptide; assay: fluorescence polarization
# [4] = target: human EphB4 (17-196) ligand binding domain, wild type (human); assay: ITC, 25 °C
# [5] = target: human EphB4 (17-196) K149Q mutant (human); assay: ITC, 25 °C
# [6] = target: human EphB4 (17-196) K149Q mutant (human); assay: FP competition, unlabeled TNYL-RAW against Alexa-532-TNYL-RAW on EphB4 K149Q (FIG. 7)
# [7] = target: human EphB4 (17-196) ligand binding domain, wild type (human); assay: ITC, 25 °C, 50 mM Tris pH 7.8, 150 mM NaCl, 1 mM CaCl2
# [8] = target: human EphB4 (17-196) K149Q mutant (human); assay: as above
# [9] = target: human EphB4 (17-196) ligand binding domain, wild type (human); assay: FP competition, unlabeled TNYL-RAW against Alexa-532-TNYL-RAW on wtEphB4 (FIG. 7)
# [10] = target: human EphB4 (17-196) L95R mutant (human); assay: ITC
# [11] = target: human EphB4 (17-196) K149Q mutant (human); assay: ITC
# [12] = target: human EphB4 (17-196) L95R mutant (human); assay: ITC, 25 °C, 2 mM TNYL-RAW in the syringe, 15 µM EphB4 (L95R) in the cell; fit assuming stoichiometry of 1
# [13] = target: human EphB4 (17-196) L95R mutant (human); assay: ITC, 25 °C
# [14] = target: human EphB4 (17-196) K149Q mutant (human); assay: ITC in phosphate buffer
# [15] = target: human EphB4 (17-196) L95R mutant (human); assay: ITC, 25 °C, 50 mM Tris pH 7.8, 150 mM NaCl, 1 mM CaCl2
# EphB4 L95R = target: T2, EphB4 L95R (Homo sapiens, UniProt P54760, L95R); assay: Fluorescence polarization binding of Alexa-532-TNYL-RAW, EphB4 L95R; details: EphB4 Leu95Arg mutant
# T2 construct: GP64 signal peptide (N, cleaved yes); made in house; host or cells: Hi5 insect cells (baculovirus, secreted)
# T2 sequence (P54760 17-196 L95R): T1 sequence (P54760 17-196) with L79R
# Procedure: (§1) This Example illustrates fluorescence polarization (FP) assays using a fluorescently-labeled reporter peptide to measure binding of various ligands to the EphB4-LBD.
# (§2) All experimental data were analyzed using Prism 4.0 software (GraphPad Software Inc., San Diego, Calif.) and Kd values were generated by fitting the experimental data using a one-site binding hyperbola nonlinear regression model or equation 8.10 (.www.invitrogen.com/downloads/FP8.pdf).
# (§3) The construct was sequence verified, and baculovirus was generated with homologous recombination into Sapphire Baculovirus DNA (Orbigen, San Diego, Calif.) following the manufacturer's protocol (10). The wtEphB4 construct was used as a template for generation of site specific mutants.
# EphB4 K149Q = target: T3, EphB4 K149Q (Homo sapiens, UniProt P54760, K149Q); assay: Fluorescence polarization binding of Alexa-532-TNYL-RAW, EphB4 K149Q; details: FP; EphB4 mutant Lys149Gln
# T3 construct: GP64 signal peptide (N, cleaved yes); made in house; host or cells: Hi5 insect cells (baculovirus, secreted)
# T3 sequence (P54760 17-196 K149Q): T1 sequence (P54760 17-196) with K133Q
# Procedure: as §1, §2, §3
# EphB4 A186S = target: T4, EphB4 A186S (Homo sapiens, UniProt P54760, A186S); assay: Fluorescence polarization binding of Alexa-532-TNYL-RAW, EphB4 A186S; details: FP; EphB4 mutant Ala186Ser
# T4 construct: GP64 signal peptide (N, cleaved yes); made in house; host or cells: Hi5 insect cells (baculovirus, secreted)
# T4 sequence (P54760 17-196 A186S): T1 sequence (P54760 17-196) with A170S
# Procedure: as §1, §2, §3
# EphB4 T147F = target: T5, EphB4 T147F (Homo sapiens, UniProt P54760, T147F); assay: Fluorescence polarization binding of Alexa-532-TNYL-RAW, EphB4 T147F; details: FP; EphB4 mutant Thr147Phe
# T5 construct: GP64 signal peptide (N, cleaved yes); made in house; host or cells: Hi5 insect cells (baculovirus, secreted)
# T5 sequence (P54760 17-196 T147F): T1 sequence (P54760 17-196) with T131F
# Procedure: as §1, §2, §3
compound,measurement,setting,value
human EphB4 (17-196) R150V mutant (receptor),Kd,[1],0.0061 µM
human EphB4 (17-196) T147F mutant (receptor),Kd,[1],0.025 µM
CC[C@H](C)[C@H](NC(=O)[C@@H]1CCCN1C(=O)CNC(=O)[C@H](CC(N)=O)NC(=O)[C@@H]1CCCN1C(=O)[C@H](CO)NC(=O)[C@H](Cc1ccccc1)NC(=O)[C@H](CC(C)C)NC(=O)[C@H](Cc1ccc(O)cc1)NC(=O)[C@H](CC(N)=O)NC(=O)[C@@H](N)[C@@H](C)O)C(=O)N[C@@H](C)C(=O)O [TNYL],ΔH,[2],−9.6 ± 0.3 koal mol−1
human EphB4 (17-196) RKR148-150SQV mutant (receptor),Kd,[1],0.021 µM
"human EphB4 (17-196) ligand binding domain, wild type (receptor)",assay window,[3],6 fold
same,Kd,[1],0.005 µM
human EphB4 (17-196) R148S mutant (receptor),Kd,[1],0.0045 µM
TNYL-RAW peptide,Kd,[4],0.071 µM
same,TΔS,[4],-20.5 kJ/mol
same,ΔG,[4],-41 kJ/mol
same,ΔH,[4],-61.5 kJ/mol
same,Kd,[5],0.25 µM
same,TΔS,[5],-11.3 kJ/mol
same,ΔG,[5],-37.7 kJ/mol
same,ΔH,[5],-49 kJ/mol
same,Ki,[6],0.17 µM
same,Kd,[7],0.071 µM
same,TΔS,[7],-20.5 kJ/mol
same,ΔG,[7],-41 kJ/mol
same,ΔH,[7],-61.5 kJ/mol
same,Kd,[8],0.16 µM
same,TΔS,[8],-13.4 kJ/mol
same,ΔG,[8],-39.3 kJ/mol
same,ΔH,[8],-52.3 kJ/mol
same,Ki,[9],0.1 µM
same,fold reduction of affinity against wild-type EphB4,[10],500 fold
same,fold reduction of affinity against wild-type EphB4,[11],3 fold
same,Kd,[12],35.9 µM
same,TΔS,[12],-24.3 kJ/mol
same,ΔG,[12],-25.5 kJ/mol
same,ΔH,[12],-50.2 kJ/mol
human ephrinB2 (extracellular domain; residues 25-187) (ligand),Kd,[4],0.04 µM
same,TΔS,[4],56.1 kJ/mol
same,ΔG,[4],-42.7 kJ/mol
same,ΔH,[4],13.8 kJ/mol
same,Kd,[13],1.9 µM
same,TΔS,[13],54.4 kJ/mol
same,ΔG,[13],-32.6 kJ/mol
same,ΔH,[13],21.8 kJ/mol
same,Kd,[5],0.02 µM
same,TΔS,[5],59 kJ/mol
same,ΔG,[5],-43.9 kJ/mol
same,ΔH,[5],15.1 kJ/mol
same,ΔHobs,[14],16.3 kJ/mol
same,Kd,[7],0.04 µM
same,TΔS,[7],56.1 kJ/mol
same,ΔG,[7],-42.7 kJ/mol
same,ΔH,[7],13.8 kJ/mol
same,Kd,[15],1.9 µM
same,TΔS,[15],54.4 kJ/mol
same,ΔG,[15],-32.6 kJ/mol
same,ΔH,[15],21.8 kJ/mol
same,Kd,[8],0.02 µM
same,TΔS,[8],60.2 kJ/mol
same,ΔG,[8],-44.4 kJ/mol
same,ΔH,[8],15.5 kJ/mol
LASPNGPIARAW [LFSP-RAW(F to A)],ΔH,[2],−7.9 ± 0.9 koal mol−1
CC[C@H](C)[C@H](NC(=O)[C@@H]1CCCN1C(=O)CNC(=O)[C@H](CC(N)=O)NC(=O)[C@@H]1CCCN1C(=O)[C@H](CO)NC(=O)[C@H](Cc1ccccc1)NC(=O)[C@H](CC(C)C)NC(=O)[C@H](Cc1ccc(O)cc1)NC(=O)[C@H](CC(N)=O)NC(=O)[C@@H](NC(=O)c1ccc(C2=c3cc4c(c(S(=O)(=O)O)c3Oc3c2cc2c(c3S(=O)(=O)O)NC(C)C2(C)C)=NC(C)C4(C)C)cc1)[C@@H](C)O)C(=O)N[C@@H](C)C(=O)N[C@@H](CCCNC(=N)N)C(=O)N[C@@H](C)C(=O)N[C@@H](Cc1c[nH]c2ccccc12)C(=O)O (stereo partly shown) [Alexa-532-TNYL-RAW] (X1-TNYLFSPNGPIARAW-OH; N-terminus and C-terminus assumed),binding of the peptide in FP assay,EphB4 L95R,did not exhibit significant binding
same,reduction in binding affinity versus wild type,EphB4 K149Q,4-5 fold
same,reduction in binding affinity versus wild type,EphB4 A186S,4-5 fold
same,reduction in binding affinity versus wild type,EphB4 T147F,4-5 fold
human EphB4 (17-196) A186S mutant (receptor),Kd,[1],0.016 µM
human EphB4 (17-196) K149Q mutant (receptor),assay window,[3],12 fold
same,Kd,[1],0.023 µM
